Experimental data taken from the supplement of paper PMC10567573.

B1: BCL2L13 (parent)
chain: QSLDQEILLKVKTEIEEELKSLDK

Variants of: B1
Experiment: protein stability index of a GFP-peptide fusion (GPS, HEK-293T) (PSI 1-6); higher = more stable
Details: c terminus: a fixed tail appended
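Note: lentivirally expressed fusions sorted by FACS into six bins by GFP to DsRed ratio, PSI derived from sequencing read proportions per bin multiplied by bin number.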

Variant | protein stability index
QSLDQEIDLKVKTEIEEELKSLDK [L8D] | 5.83
QSLDQEIKLKVKTEIEEELKSLDK [L8K] | 4.75
QSLDQEIFLKVKTEIEEELKSLDK [L8F] | 5.14
QSLDQEIMLKVKTEIEEELKSLDK [L8M] | 5.37
QSLDQEIQLKVKTEIEEELKSLDK [L8Q] | 5.42
QSLDQEIYLKVKTEIEEELKSLDK [L8Y] | 3.76
QSLDQEIRLKVKTEIEEELKSLDK [L8R] | 5.71
QSLDQEIGLKVKTEIEEELKSLDK [L8G] | 5.45
QSLDQEIALKVKTEIEEELKSLDK [L8A] | 5.62
QSLDQEICLKVKTEIEEELKSLDK [L8C] | 5.55
QSLDQEITLKVKTEIEEELKSLDK [L8T] | 5.71
QSLDQEINLKVKTEIEEELKSLDK [L8N] | 5.9
QSLDQEISLKVKTEIEEELKSLDK [L8S] | 5.18
QSLDQEIPLKVKTEIEEELKSLDK [L8P] | 5.17
QSLDQEIWLKVKTEIEEELKSLDK [L8W] | 2.91
QSLDQEIILKVKTEIEEELKSLDK [L8I] | 4.14
QSLDQEIHLKVKTEIEEELKSLDK [L8H] | 5.63
QSLDQEIELKVKTEIEEELKSLDK [L8E] | 5.41
QSLDQEIVLKVKTEIEEELKSLDK [L8V] | 5.32
QSLDQEILLKVATEIEEELKSLDK [K12A] | 4.94
QSLDQEILLKVITEIEEELKSLDK [K12I] | 2.6
QSLDQEILLKVGTEIEEELKSLDK [K12G] | 5.65
QSLDQEILLKVQTEIEEELKSLDK [K12Q] | 4.62
QSLDQEILLKVDTEIEEELKSLDK [K12D] | 4.08

Variant | protein stability index
QSLDQEILLKVNTEIEEELKSLDK [K12N] | 5.97
QSLDQEILLKVLTEIEEELKSLDK [K12L] | 2.13
QSLDQEILLKVFTEIEEELKSLDK [K12F] | 3.15
QSLDQEILLKVHTEIEEELKSLDK [K12H] | 4.71
QSLDQEILLKVPTEIEEELKSLDK [K12P] | 5.38
QSLDQEILLKVTTEIEEELKSLDK [K12T] | 4.73
QSLDQEILLKVSTEIEEELKSLDK [K12S] | 4.61
QSLDQEILLKVMTEIEEELKSLDK [K12M] | 1.81
QSLDQEILLKVRTEIEEELKSLDK [K12R] | 4.77
QSLDQEILLKVYTEIEEELKSLDK [K12Y] | 4.27
QSLDQEILLKVVTEIEEELKSLDK [K12V] | 4.1
QSLDQEILLKVETEIEEELKSLDK [K12E] | 5.6
QSLDQEILLKVCTEIEEELKSLDK [K12C] | 4.43
QSLDQMILLKVKTEIEEELKSLDK [E6M] | 3.71
QSLDQVILLKVKTEIEEELKSLDK [E6V] | 3.92
QSLDQDILLKVKTEIEEELKSLDK [E6D] | 4.83
QSLDQIILLKVKTEIEEELKSLDK [E6I] | 3.27
QSLDQAILLKVKTEIEEELKSLDK [E6A] | 3.94
QSLDQYILLKVKTEIEEELKSLDK [E6Y] | 3.47
QSLDQSILLKVKTEIEEELKSLDK [E6S] | 4.79
QSLDQQILLKVKTEIEEELKSLDK [E6Q] | 4.56
QSLDQLILLKVKTEIEEELKSLDK [E6L] | 3.58
QSLDQPILLKVKTEIEEELKSLDK [E6P] | 5.35
QSLDQTILLKVKTEIEEELKSLDK [E6T] | 4.62

Variant | protein stability index
QSLDQFILLKVKTEIEEELKSLDK [E6F] | 3.51
QSLDQHILLKVKTEIEEELKSLDK [E6H] | 4.15
QSLDQGILLKVKTEIEEELKSLDK [E6G] | 4.78
QSLDQRILLKVKTEIEEELKSLDK [E6R] | 3.67
QSLDQNILLKVKTEIEEELKSLDK [E6N] | 5.24
QSLDQWILLKVKTEIEEELKSLDK [E6W] | 2.76
QSLRQEILLKVKTEIEEELKSLDK [D4R] | 3.63
QSLAQEILLKVKTEIEEELKSLDK [D4A] | 4.27
QSLMQEILLKVKTEIEEELKSLDK [D4M] | 2.83
QSLQQEILLKVKTEIEEELKSLDK [D4Q] | 4.66
QSLKQEILLKVKTEIEEELKSLDK [D4K] | 4.55
QSLFQEILLKVKTEIEEELKSLDK [D4F] | 2.34
QSLTQEILLKVKTEIEEELKSLDK [D4T] | 3.5
QSLNQEILLKVKTEIEEELKSLDK [D4N] | 4.52
QSLHQEILLKVKTEIEEELKSLDK [D4H] | 4.69
QSLVQEILLKVKTEIEEELKSLDK [D4V] | 2.66
QSLEQEILLKVKTEIEEELKSLDK [D4E] | 4.58
QSLLQEILLKVKTEIEEELKSLDK [D4L] | 2.79
QSLIQEILLKVKTEIEEELKSLDK [D4I] | 2.28
QSLSQEILLKVKTEIEEELKSLDK [D4S] | 4.42
QSLWQEILLKVKTEIEEELKSLDK [D4W] | 2
QSLCQEILLKVKTEIEEELKSLDK [D4C] | 4
QSLDVEILLKVKTEIEEELKSLDK [Q5V] | 3.62
QSLDLEILLKVKTEIEEELKSLDK [Q5L] | 2.99

Variant | protein stability index
QSLDFEILLKVKTEIEEELKSLDK [Q5F] | 2.83
QSLDHEILLKVKTEIEEELKSLDK [Q5H] | 3.64
QSLDDEILLKVKTEIEEELKSLDK [Q5D] | 5.28
QSLDYEILLKVKTEIEEELKSLDK [Q5Y] | 3.38
QSLDKEILLKVKTEIEEELKSLDK [Q5K] | 4.7
QSLDIEILLKVKTEIEEELKSLDK [Q5I] | 2.95
QSLDGEILLKVKTEIEEELKSLDK [Q5G] | 4.95
QSLDNEILLKVKTEIEEELKSLDK [Q5N] | 4.61
QSLDSEILLKVKTEIEEELKSLDK [Q5S] | 4.51
QSLDREILLKVKTEIEEELKSLDK [Q5R] | 4.14
QSLDMEILLKVKTEIEEELKSLDK [Q5M] | 4.05
QSLDCEILLKVKTEIEEELKSLDK [Q5C] | 4.67
QSLDEEILLKVKTEIEEELKSLDK [Q5E] | 4.8
QSLDWEILLKVKTEIEEELKSLDK [Q5W] | 3.67
QSLDPEILLKVKTEIEEELKSLDK [Q5P] | 4.4
QSLDQEILLKVKCEIEEELKSLDK [T13C] | 3.28
QSLDQEILLKVKDEIEEELKSLDK [T13D] | 4.44
QSLDQEILLKVKQEIEEELKSLDK [T13Q] | 3.67
QSLDQEILLKVKVEIEEELKSLDK [T13V] | 3.58
QSLDQEILLKVKMEIEEELKSLDK [T13M] | 3.65
QSLDQEILLKVKPEIEEELKSLDK [T13P] | 5.34
QSLDQEILLKVKREIEEELKSLDK [T13R] | 4.96
